From paper PMC5651844, “YEATS2 links histone acetylation to tumorigenesis of non-small cell lung cancer” (Nature Communications, 2017)

Target: YEATS domain of human YEATS2 (aa 201-332), tag removed (human) (UniProt Q9ULM3)
Test: ITC; YEATS2_(201-332) titrated with histone peptides, 15 C, 20 mM Tris 7.5, 0.5 M sodium citrate, 5% glycerol, 2 mM beta-mercaptoethanol; one set of binding sites model

Chain of YEATS domain of human YEATS2 (aa 201-332), tag removed (human) (Q9ULM3 201-332): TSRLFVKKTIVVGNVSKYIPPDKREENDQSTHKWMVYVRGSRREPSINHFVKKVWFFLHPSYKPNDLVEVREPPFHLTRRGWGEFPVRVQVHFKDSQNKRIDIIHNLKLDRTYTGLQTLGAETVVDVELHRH
Chain of histone H3 P30A mutant peptide (peptide; modification not given) (chain, as listed by the source P30A): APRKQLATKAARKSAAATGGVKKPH

fold drop against the wild-type H3K27ac peptide: 2 fold
Substance: histone H3 P30A mutant peptide (peptide; modification not given)
